{"source": "patent US20200000897A1", "about": "(published 2020)", "data": [{"molecular_target": "T1, HLA-A*03:01 (human)", "T1 construct": "MHC class I monomer first loaded with a UV-sensitive peptide that is cleaved by UV irradiation and exchanged for the test peptide; captured on streptavidin plates; also called peptide-receptive MHC molecules", "assay": "UV-ligand exchange, anti-b2m ELISA; peptide exchange yield grade (>10% +, >20% ++, >50% +++, >75% ++++)", "excerpt": "Candidate peptides for T cell based therapies according to the present invention were further tested for their MHC binding capacity (affinity). The individual peptide-MHC complexes were produced by UV-ligand exchange, where a UV-sensitive peptide is cleaved upon UV-irradiation and exchanged with the peptide of interest as analyzed. Only peptide candidates that can effectively bind and stabilize the peptide-receptive MHC molecules prevent dissociation of the MHC complexes. To determine the yield of the exchange reaction, an ELISA was performed based on the detection of the light chain (β2m) of stabilized MHC complexes. The assay was performed as generally described in Rodenko et al. (Rodenko et al., 2006)\n96 well MAXISorp plates (NUNC) were coated over night with 2 ug/ml streptavidin in PBS at room temperature, washed 4× and blocked forl h at 37° C. in 2% BSA containing blocking buffer. Refolded HLA-A*02:01/MLA-001 monomers served as standards, covering the range of 15-500 ng/ml. Peptide-MHC monomers of the UV-exchange reaction were diluted 100-fold in blocking buffer. Samples were incubated for 1 h at 37° C., washed four times, incubated with 2 ug/ml HRP conjugated anti-β2m for 1 h at 37° C., washed again and detected with TMB solution that is stopped with […]. Absorption was measured at 450 nm.", "units": {"peptide exchange yield": "%"}, "values": [{"binder": "AILHPFRAK", "peptide exchange yield": "50 to 75"}, {"binder": "ALSRMSQQY", "peptide exchange yield": "> 75"}, {"binder": "ASLAAAVLAK", "peptide exchange yield": "50 to 75"}, {"binder": "ASSFRPLLSK", "peptide exchange yield": "50 to 75"}, {"binder": "KVFAEHKISY", "peptide exchange yield": "50 to 75"}, {"binder": "KVLTRNIEY", "peptide exchange yield": "50 to 75"}, {"binder": "VVYDTMIEK", "peptide exchange yield": "50 to 75"}, {"binder": "RVDSKQRYY", "peptide exchange yield": "> 75"}, {"binder": "RMGFRTLSK", "peptide exchange yield": "> 75"}, {"binder": "KLFMPRPK", "peptide exchange yield": "50 to 75"}, {"binder": "LASSPAGHK", "peptide exchange yield": "50 to 75"}, {"binder": "RLLPGKVVWK", "peptide exchange yield": "> 75"}, {"binder": "KLQNLPTLLY", "peptide exchange yield": "50 to 75"}, {"binder": "SLLTVSGAWAK", "peptide exchange yield": "> 75"}, {"binder": "GLAAGALLLY", "peptide exchange yield": "20 to 50"}, {"binder": "RALGVPFVPR", "peptide exchange yield": "> 75"}, {"binder": "AVAFFVLPSK", "peptide exchange yield": "> 75"}, {"binder": "VAFFVLPSK", "peptide exchange yield": "20 to 50"}, {"binder": "QVLDLQSVK", "peptide exchange yield": "20 to 50"}, {"binder": "TLLSYELAFK", "peptide exchange yield": "> 75"}, {"binder": "ILNLNKMVK", "peptide exchange yield": "50 to 75"}, {"binder": "RLAQYTIER", "peptide exchange yield": "> 75"}, {"binder": "TVFLSKYLKK", "peptide exchange yield": "50 to 75"}, {"binder": "MLYYPSVSR", "peptide exchange yield": "> 75"}, {"binder": "ALARVSSVKL", "peptide exchange yield": "50 to 75"}, {"binder": "SLRGSFPILY", "peptide exchange yield": "10 to 20"}, {"binder": "KTLGKIAEK", "peptide exchange yield": "> 75"}, {"binder": "TIASVLVAR", "peptide exchange yield": "20 to 50"}, {"binder": "RLYAPVVNISRL", "peptide exchange yield": "50 to 75"}, {"binder": "TVFVELWLK", "peptide exchange yield": "20 to 50"}, {"binder": "LLLAAVTVK", "peptide exchange yield": "20 to 50"}, {"binder": "KIICGVHYLY", "peptide exchange yield": "10 to 20"}, {"binder": "RVYPHKTLY", "peptide exchange yield": "50 to 75"}, {"binder": "SPRVYWLGLNDR", "peptide exchange yield": "10 to 20"}, {"binder": "VVYDTMIEKF", "peptide exchange yield": "> 75"}, {"binder": "KVASFTVIGY", "peptide exchange yield": "50 to 75"}, {"binder": "VSLGIAVSK", "peptide exchange yield": "20 to 50"}, {"binder": "AVVQGLVEK", "peptide exchange yield": "20 to 50"}, {"binder": "PLAMLAATCNK", "peptide exchange yield": "20 to 50"}, {"binder": "MKTLPAMLGTGK", "peptide exchange yield": "20 to 50"}, {"binder": "SLFEGIYTIK", "peptide exchange yield": "> 75"}, {"binder": "RLRDYISSLK", "peptide exchange yield": "> 75"}, {"binder": "KIKKPLSYR", "peptide exchange yield": "> 75"}, {"binder": "TVYVAMCHKF", "peptide exchange yield": "> 75"}, {"binder": "SIYKKAVYR", "peptide exchange yield": "> 75"}, {"binder": "LIGPLLICK", "peptide exchange yield": "> 75"}, {"binder": "LLRSGLTLR", "peptide exchange yield": "20 to 50"}, {"binder": "TRMQKAGFLYY", "peptide exchange yield": "20 to 50"}, {"binder": "RIGNKGIYK", "peptide exchange yield": "50 to 75"}, {"binder": "ATSPPASVR", "peptide exchange yield": "> 75"}, {"binder": "VSLSKMLKK", "peptide exchange yield": "50 to 75"}, {"binder": "VSIRNTLLY", "peptide exchange yield": "10 to 20"}, {"binder": "IIFIPATILLK", "peptide exchange yield": "> 75"}, {"binder": "SLLKPSGDYFK", "peptide exchange yield": "50 to 75"}]}]}
